# Measured values as given in patent US20140271457A1 (AbbVie / Abbott, published 2014).
# Target: Recombinant Human TNF-α/TNFSF1A (human, UniProt P01375 77-233)
# Assay: cell-based or functional assay
# Recombinant Human TNF-α/TNFSF1A, sequence (P01375 77-233 limits assumed): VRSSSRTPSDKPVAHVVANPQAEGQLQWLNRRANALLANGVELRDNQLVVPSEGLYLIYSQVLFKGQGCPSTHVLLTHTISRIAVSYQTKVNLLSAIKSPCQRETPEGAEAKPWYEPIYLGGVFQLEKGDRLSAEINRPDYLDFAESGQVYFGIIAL
Binder,N-Terminal VD huTNFα Neutralization Assay IC50,C-Terminal VD huTNFα Neutralization Assay IC50
"DVD3233 (bispecific antibody, IgG1) VH: EVQLVQSGAEVKKPGASVKVSCKASGYTFNNYGIIWVRQAPGQGLEWMGWINTYTGKPTYAQKFQGRVTMTTDTSTSTAYMELSSLRSEDTAVYYCARKLFNTVAVTDNAMDYWGQGTTVTVSSGGGGSGGGGSEVQLVESGGGLVQPGGSLRLSCAASGFSFSKYWLGWVRQAPGKGLEWVSDIYPGYDYTHYNEKFKDRFTISADTSKNTAYLQMNSLRAEDTAVYYCARSDGSSTYWGQGTLVTVSS VL: DIQMTQSPSSLSASVGDRVTITCRASQDIENYLNWYQQKPGKAPKLLIYYTSRLQSGVPSRFSGSGSGTDFTLTISSLQPEDFATYFCQQGNTQPPTFGQGTKLEIKRGGSGGGGSGDIQMTQSPSSLSASVGDRVTITCTSSQNIVHSNGNTYLEWYQQKPGKAPKLLIYKVSNRFSGVPSRFSGSGSGTDFTLTISSLQPEDFATYYCFQVSHVPYTFGQGTKVEIKR",5 pM,–
"DVD3229 (bispecific antibody, IgG1) VH: EVQLVESGGGLVQPGGSLRLSCAASGFSFSKYWLGWVRQAPGKGLEWVSDIYPGYDYTHYNEKFKDRFTISADTSKNTAYLQMNSLRAEDTAVYYCARSDGSSTYWGQGTLVTVSSASTKGPEVQLVQSGAEVKKPGASVKVSCKASGYTFANYGIIWVRQAPGQGLEWMGWINTYTGKPTYAQKFQGRVTMTTDTSTSTAYMELSSLRSEDTAVYYCARKLFTTMDVTDNAMDYWGQGTTVTVSS VL: DIQMTQSPSSLSASVGDRVTITCTSSQNIVHSNGNTYLEWYQQKPGKAPKLLIYKVSNRFSGVPSRFSGSGSGTDFTLTISSLQPEDFATYYCFQVSHVPYTFGQGTKVEIKRTVAAPDIQMTQSPSSLSASVGDRVTITCRASQDISQYLNWYQQKPGKAPKLLIYYTSRLQSGVPSRFSGSGSGTDFTLTISSLQPEDFATYFCQQGNTWPPTFGQGTKLEIKR",–,86 pM
"DVD3232 (bispecific antibody, IgG1) VH: EVQLVESGGGLVQPGGSLRLSCAASGFSFSKYWLGWVRQAPGKGLEWVSDIYPGYDYTHYNEKFKDRFTISADTSKNTAYLQMNSLRAEDTAVYYCARSDGSSTYWGQGTLVTVSSASTKGPSVFPLAPEVQLVQSGAEVKKPGASVKVSCKASGYTFANYGIIWVRQAPGQGLEWMGWINTYTGKPTYAQKFQGRVTMTTDTSTSTAYMELSSLRSEDTAVYYCARKLFTTMDVTDNAMDYWGQGTTVTVSS VL: DIQMTQSPSSLSASVGDRVTITCTSSQNIVHSNGNTYLEWYQQKPGKAPKLLIYKVSNRFSGVPSRFSGSGSGTDFTLTISSLQPEDFATYYCFQVSHVPYTFGQGTKVEIKRTVAAPDIQMTQSPSSLSASVGDRVTITCRASQDISQYLNWYQQKPGKAPKLLIYYTSRLQSGVPSRFSGSGSGTDFTLTISSLQPEDFATYFCQQGNTWPPTFGQGTKLEIKR",–,254 pM
"DVD3231 (bispecific antibody, IgG1) VH: EVQLVESGGGLVQPGGSLRLSCAASGFSFSKYWLGWVRQAPGKGLEWVSDIYPGYDYTHYNEKFKDRFTISADTSKNTAYLQMNSLRAEDTAVYYCARSDGSSTYWGQGTLVTVSSASTKGPEVQLVQSGAEVKKPGASVKVSCKASGYTFANYGIIWVRQAPGQGLEWMGWINTYTGKPTYAQKFQGRVTMTTDTSTSTAYMELSSLRSEDTAVYYCARKLFTTMDVTDNAMDYWGQGTTVTVSS VL: DIQMTQSPSSLSASVGDRVTITCTSSQNIVHSNGNTYLEWYQQKPGKAPKLLIYKVSNRFSGVPSRFSGSGSGTDFTLTISSLQPEDFATYYCFQVSHVPYTFGQGTKVEIKRTVAAPSVFIFPPDIQMTQSPSSLSASVGDRVTITCRASQDISQYLNWYQQKPGKAPKLLIYYTSRLQSGVPSRFSGSGSGTDFTLTISSLQPEDFATYFCQQGNTWPPTFGQGTKLEIKR",–,112 pM
"DVD3228 (bispecific antibody, IgG1) VH: EVQLVESGGGLVQPGGSLRLSCAASGFSFSKYWLGWVRQAPGKGLEWVSDIYPGYDYTHYNEKFKDRFTISADTSKNTAYLQMNSLRAEDTAVYYCARSDGSSTYWGQGTLVTVSSGGGGSGGGGSEVQLVQSGAEVKKPGASVKVSCKASGYTFANYGIIWVRQAPGQGLEWMGWINTYTGKPTYAQKFQGRVTMTTDTSTSTAYMELSSLRSEDTAVYYCARKLFTTMDVTDNAMDYWGQGTTVTVSS VL: DIQMTQSPSSLSASVGDRVTITCTSSQNIVHSNGNTYLEWYQQKPGKAPKLLIYKVSNRFSGVPSRFSGSGSGTDFTLTISSLQPEDFATYYCFQVSHVPYTFGQGTKVEIKRGGSGGGGSGDIQMTQSPSSLSASVGDRVTITCRASQDISQYLNWYQQKPGKAPKLLIYYTSRLQSGVPSRFSGSGSGTDFTLTISSLQPEDFATYFCQQGNTWPPTFGQGTKLEIKR",–,52 pM
"DVD3227 (bispecific antibody, IgG1) VH: EVQLVQSGAEVKKPGASVKVSCKASGYTFANYGIIWVRQAPGQGLEWMGWINTYTGKPTYAQKFQGRVTMTTDTSTSTAYMELSSLRSEDTAVYYCARKLFTTMDVTDNAMDYWGQGTTVTVSSASTKGPSVFPLAPEVQLVESGGGLVQPGGSLRLSCAASGFSFSKYWLGWVRQAPGKGLEWVSDIYPGYDYTHYNEKFKDRFTISADTSKNTAYLQMNSLRAEDTAVYYCARSDGSSTYWGQGTLVTVSS VL: DIQMTQSPSSLSASVGDRVTITCRASQDISQYLNWYQQKPGKAPKLLIYYTSRLQSGVPSRFSGSGSGTDFTLTISSLQPEDFATYFCQQGNTWPPTFGQGTKLEIKRTVAAPDIQMTQSPSSLSASVGDRVTITCTSSQNIVHSNGNTYLEWYQQKPGKAPKLLIYKVSNRFSGVPSRFSGSGSGTDFTLTISSLQPEDFATYYCFQVSHVPYTFGQGTKVEIKR",2 pM,–
"DVD3234 (bispecific antibody, IgG1) VH: EVQLVQSGAEVKKPGASVKVSCKASGYTFNNYGIIWVRQAPGQGLEWMGWINTYTGKPTYAQKFQGRVTMTTDTSTSTAYMELSSLRSEDTAVYYCARKLFNTVAVTDNAMDYWGQGTTVTVSSASTKGPEVQLVESGGGLVQPGGSLRLSCAASGFSFSKYWLGWVRQAPGKGLEWVSDIYPGYDYTHYNEKFKDRFTISADTSKNTAYLQMNSLRAEDTAVYYCARSDGSSTYWGQGTLVTVSS VL: DIQMTQSPSSLSASVGDRVTITCRASQDIENYLNWYQQKPGKAPKLLIYYTSRLQSGVPSRFSGSGSGTDFTLTISSLQPEDFATYFCQQGNTQPPTFGQGTKLEIKRTVAAPDIQMTQSPSSLSASVGDRVTITCTSSQNIVHSNGNTYLEWYQQKPGKAPKLLIYKVSNRFSGVPSRFSGSGSGTDFTLTISSLQPEDFATYYCFQVSHVPYTFGQGTKVEIKR",9 pM,–

# More lines, now with the values ahead:
N-Terminal VD huTNFα Neutralization Assay IC50,C-Terminal VD huTNFα Neutralization Assay IC50,Binder
6 pM,–,"DVD3236 (bispecific antibody, IgG1) VH: EVQLVQSGAEVKKPGASVKVSCKASGYTFNNYGIIWVRQAPGQGLEWMGWINTYTGKPTYAQKFQGRVTMTTDTSTSTAYMELSSLRSEDTAVYYCARKLFNTVAVTDNAMDYWGQGTTVTVSSASTKGPEVQLVESGGGLVQPGGSLRLSCAASGFSFSKYWLGWVRQAPGKGLEWVSDIYPGYDYTHYNEKFKDRFTISADTSKNTAYLQMNSLRAEDTAVYYCARSDGSSTYWGQGTLVTVSS VL: DIQMTQSPSSLSASVGDRVTITCRASQDIENYLNWYQQKPGKAPKLLIYYTSRLQSGVPSRFSGSGSGTDFTLTISSLQPEDFATYFCQQGNTQPPTFGQGTKLEIKRTVAAPSVFIFPPDIQMTQSPSSLSASVGDRVTITCTSSQNIVHSNGNTYLEWYQQKPGKAPKLLIYKVSNRFSGVPSRFSGSGSGTDFTLTISSLQPEDFATYYCFQVSHVPYTFGQGTKVEIKR"
–,1620 pM,"DVD3239 (bispecific antibody, IgG1) VH: EVQLVESGGGLVQPGGSLRLSCAASGFSFSKYWLGWVRQAPGKGLEWVSDIYPGYDYTHYNEKFKDRFTISADTSKNTAYLQMNSLRAEDTAVYYCARSDGSSTYWGQGTLVTVSSASTKGPEVQLVQSGAEVKKPGASVKVSCKASGYTFNNYGIIWVRQAPGQGLEWMGWINTYTGKPTYAQKFQGRVTMTTDTSTSTAYMELSSLRSEDTAVYYCARKLFNTVAVTDNAMDYWGQGTTVTVSS VL: DIQMTQSPSSLSASVGDRVTITCTSSQNIVHSNGNTYLEWYQQKPGKAPKLLIYKVSNRFSGVPSRFSGSGSGTDFTLTISSLQPEDFATYYCFQVSHVPYTFGQGTKVEIKRTVAAPDIQMTQSPSSLSASVGDRVTITCRASQDIENYLNWYQQKPGKAPKLLIYYTSRLQSGVPSRFSGSGSGTDFTLTISSLQPEDFATYFCQQGNTQPPTFGQGTKLEIKR"
–,112 pM,"DVD3241 (bispecific antibody, IgG1) VH: EVQLVESGGGLVQPGGSLRLSCAASGFSFSKYWLGWVRQAPGKGLEWVSDIYPGYDYTHYNEKFKDRFTISADTSKNTAYLQMNSLRAEDTAVYYCARSDGSSTYWGQGTLVTVSSASTKGPEVQLVQSGAEVKKPGASVKVSCKASGYTFNNYGIIWVRQAPGQGLEWMGWINTYTGKPTYAQKFQGRVTMTTDTSTSTAYMELSSLRSEDTAVYYCARKLFNTVAVTDNAMDYWGQGTTVTVSS VL: DIQMTQSPSSLSASVGDRVTITCTSSQNIVHSNGNTYLEWYQQKPGKAPKLLIYKVSNRFSGVPSRFSGSGSGTDFTLTISSLQPEDFATYYCFQVSHVPYTFGQGTKVEIKRTVAAPSVFIFPPDIQMTQSPSSLSASVGDRVTITCRASQDIENYLNWYQQKPGKAPKLLIYYTSRLQSGVPSRFSGSGSGTDFTLTISSLQPEDFATYFCQQGNTQPPTFGQGTKLEIKR"
–,168 pM,"DVD3238 (bispecific antibody, IgG1) VH: EVQLVESGGGLVQPGGSLRLSCAASGFSFSKYWLGWVRQAPGKGLEWVSDIYPGYDYTHYNEKFKDRFTISADTSKNTAYLQMNSLRAEDTAVYYCARSDGSSTYWGQGTLVTVSSGGGGSGGGGSEVQLVQSGAEVKKPGASVKVSCKASGYTFNNYGIIWVRQAPGQGLEWMGWINTYTGKPTYAQKFQGRVTMTTDTSTSTAYMELSSLRSEDTAVYYCARKLFNTVAVTDNAMDYWGQGTTVTVSS VL: DIQMTQSPSSLSASVGDRVTITCTSSQNIVHSNGNTYLEWYQQKPGKAPKLLIYKVSNRFSGVPSRFSGSGSGTDFTLTISSLQPEDFATYYCFQVSHVPYTFGQGTKVEIKRGGSGGGGSGDIQMTQSPSSLSASVGDRVTITCRASQDIENYLNWYQQKPGKAPKLLIYYTSRLQSGVPSRFSGSGSGTDFTLTISSLQPEDFATYFCQQGNTQPPTFGQGTKLEIKR"
10 pM,–,"DVD3237 (bispecific antibody, IgG1) VH: EVQLVQSGAEVKKPGASVKVSCKASGYTFNNYGIIWVRQAPGQGLEWMGWINTYTGKPTYAQKFQGRVTMTTDTSTSTAYMELSSLRSEDTAVYYCARKLFNTVAVTDNAMDYWGQGTTVTVSSASTKGPSVFPLAPEVQLVESGGGLVQPGGSLRLSCAASGFSFSKYWLGWVRQAPGKGLEWVSDIYPGYDYTHYNEKFKDRFTISADTSKNTAYLQMNSLRAEDTAVYYCARSDGSSTYWGQGTLVTVSS VL: DIQMTQSPSSLSASVGDRVTITCRASQDIENYLNWYQQKPGKAPKLLIYYTSRLQSGVPSRFSGSGSGTDFTLTISSLQPEDFATYFCQQGNTQPPTFGQGTKLEIKRTVAAPDIQMTQSPSSLSASVGDRVTITCTSSQNIVHSNGNTYLEWYQQKPGKAPKLLIYKVSNRFSGVPSRFSGSGSGTDFTLTISSLQPEDFATYYCFQVSHVPYTFGQGTKVEIKR"
